Results on 15 molecules are retold here after patent US20060257938A1, “Method of screening for drugs that block ligand binding to a lipid binding protein” (priority 2005, published 2006).

Holding throughout (format): binding
Assay [1] is described as follows: Probe fluorescence ratio response to linoleic acid relative to ADIFAB2. The following applies: response relative to ADIFAB2. Summed up: (§1)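 Fluorescently labeled rat intestinal FABP variants were read at two emission wavelengths, near the unbound maximum (about 420 to 480 nm) and the FFA-bound maximum (about 495 to 580 nm). R = Fλ1/Fλ2 after subtracting probe-free intensity; ΔR = R+agent − R0, normalized to ADIFAB2 (rI-FABP-L72A).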

Assay [2] in a line: Probe fluorescence ratio response to oleic acid relative to ADIFAB2. The following applies: response relative to ADIFAB2. An outline of the steps:
as §1

A short description of assay [3]: Probe fluorescence ratio response to linolenic acid relative to ADIFAB2. The note with it: response relative to ADIFAB2. Summed up:
as §1

The nature of assay [4]: Probe fluorescence ratio response to palmitic acid relative to ADIFAB2. The note with it: response relative to ADIFAB2. An outline of the steps:
as §1

Assay [5] in a line: Probe fluorescence ratio response to arachidonic acid relative to ADIFAB2. The note with it: arachidonic acid; response relative to ADIFAB2. An outline of the steps: as §1

B1: 14M 72M 117A (protein, listed as Rattus norvegicus)
chain: AFDGTWKVDRNENMEKFMEKMGINVVKRKLGAHDNLKLTITQEGNKFTVKESSNFRNIDVVFELGVDFAYSMADGTELTGTWTMEGNKLVGKFKRVDNGKELIAVREISGNELIQTATYEGVEAKRIFKKE
modifications: PEPTIDE (1)...(131) wild-type rat intestinal fatty acid binding protein
For B1, the “DR/DR LA” value in assay [1] is 1.956. Also, in assay [2], the “DR/DR OA” value turned out to be 1.054. Moreover, the “DR/DR LNA” value in assay [3] was determined as 2.031. For the same molecule, in assay [4], the “DR/DR PA” value was determined as 0.870. Besides, in assay [5], the “DR/DR AA” value is 1.649.

B2: 31V, 72A (protein, listed as Rattus norvegicus)
chain: AFDGTWKVDRNENYEKFMEKMGINVVKRKLVAHDNLKLTITQEGNKFTVKESSNFRNIDVVFELGVDFAYSAADGTELTGTWTMEGNKLVGKFKRVDNGKELIAVREISGNELIQTYTYEGVEAKRIFKKE
modifications: PEPTIDE (1)...(131) wild-type rat intestinal fatty acid binding protein
Take B2: the “DR/DR LA” value in assay [1] was 0.384. The “DR/DR OA” value in assay [2] worked out at 0.081. Besides, the “DR/DR LNA” value in assay [3] was 0.776. The “DR/DR PA” value in assay [4] is 0.206. In addition, the “DR/DR AA” value in assay [5] turned out to be 0.395.

B3: 38T, 72A (protein, listed as Rattus norvegicus)
chain: AFDGTWKVDRNENYEKFMEKMGINVVKRKLGAHDNLKTTITQEGNKFTVKESSNFRNIDVVFELGVDFAYSAADGTELTGTWTMEGNKLVGKFKRVDNGKELIAVREISGNELIQTYTYEGVEAKRIFKKE
modifications: PEPTIDE (1)...(131) wild-type rat intestinal fatty acid binding protein
Turning to B3, the “DR/DR LA” value in assay [1] was 1.577. Further, the “DR/DR OA” value in assay [2] worked out at 1.547. The “DR/DR LNA” value in assay [3] amounted to 1.639. The “DR/DR PA” value in assay [4] is given as 1.022. Further, the “DR/DR AA” value in assay [5] is on record as 1.598.

B4: 104N, 72A (protein, listed as Rattus norvegicus)
chain: AFDGTWKVDRNENYEKFMEKMGINVVKRKLGAHDNLKLTITQEGNKFTVKESSNFRNIDVVFELGVDFAYSAADGTELTGTWTMEGNKLVGKFKRVDNGKELINVREISGNELIQTYTYEGVEAKRIFKKE
modifications: PEPTIDE (1)...(131) wild-type rat intestinal fatty acid binding protein
As to B4, the “DR/DR LA” value in assay [1] amounted to 0.385. In assay [2], the “DR/DR OA” value came out at 0.408. In addition, the “DR/DR LNA” value in assay [3] is given as 0.391. Moreover, the “DR/DR PA” value in assay [4] is recorded as 0.406. In addition, in assay [5], the “DR/DR AA” value came out at 1.018.

B5: 23W, 72A (protein, listed as Rattus norvegicus)
chain: AFDGTWKVDRNENYEKFMEKMGWNVVKRKLGAHDNLKLTITQEGNKFTVKESSNFRNIDVVFELGVDFAYSAADGTELTGTWTMEGNKLVGKFKRVDNGKELIAVREISGNELIQTYTYEGVEAKRIFKKE
modifications: PEPTIDE (1)...(131) wild-type rat intestinal fatty acid binding protein
Regarding B5, the “DR/DR LA” value in assay [1] is listed as 0.794. Besides, the “DR/DR OA” value in assay [2] was determined as 0.448. For the same molecule, in assay [3], the “DR/DR LNA” value stood at 0.956. In addition, the “DR/DR PA” value in assay [4] turned out to be 0.492. Also, the “DR/DR AA” value in assay [5] was 0.618.

B6: 62P, 72A (protein, listed as Rattus norvegicus)
chain: AFDGTWKVDRNENYEKFMEKMGINVVKRKLGAHDNLKLTITQEGNKFTVKESSNFRNIDVVPELGVDFAYSAADGTELTGTWTMEGNKLVGKFKRVDNGKELIAVREISGNELIQTYTYEGVEAKRIFKKE
modifications: PEPTIDE (1)...(131) wild-type rat intestinal fatty acid binding protein
As for B6, in assay [1], the “DR/DR LA” value is reported as 1.572. The “DR/DR OA” value in assay [2] was 1.448. For the same molecule, the “DR/DR LNA” value in assay [3] is given as 1.581. In addition, the “DR/DR PA” value in assay [4] was determined as 1.247. Moreover, the “DR/DR AA” value in assay [5] was found to be 1.548.

B7: 31I, 72A (protein, listed as Rattus norvegicus)
chain: AFDGTWKVDRNENYEKFMEKMGINVVKRKLIAHDNLKLTITQEGNKFTVKESSNFRNIDVVFELGVDFAYSAADGTELTGTWTMEGNKLVGKFKRVDNGKELIAVREISGNELIQTYTYEGVEAKRIFKKE
modifications: PEPTIDE (1)...(131) wild-type rat intestinal fatty acid binding protein
Consider B7, for which the “DR/DR LA” value in assay [1] came out at 0.168. In addition, the “DR/DR OA” value in assay [2] is −0.213. For the same molecule, in assay [3], the “DR/DR LNA” value was determined as 0.413. The “DR/DR PA” value in assay [4] was 0.091. Further, the “DR/DR AA” value in assay [5] was found to be 0.303.

B8: 14W 72M 117A (protein, listed as Rattus norvegicus)
chain: AFDGTWKVDRNENWEKFMEKMGINVVKRKLGAHDNLKLTITQEGNKFTVKESSNFRNIDVVFELGVDFAYSMADGTELTGTWTMEGNKLVGKFKRVDNGKELIAVREISGNELIQTATYEGVEAKRIFKKE
modifications: PEPTIDE (1)...(131) wild-type rat intestinal fatty acid binding protein
For B8, the “DR/DR LA” value in assay [1] came to 1.009. In addition, the “DR/DR OA” value in assay [2] came to 0.706. In addition, the “DR/DR LNA” value in assay [3] was found to be 1.286. Moreover, in assay [4], the “DR/DR PA” value worked out at 0.515. Also, the “DR/DR AA” value in assay [5] is reported as 0.945.

B9: 36V, 72A (protein, listed as Rattus norvegicus)
chain: AFDGTWKVDRNENYEKFMEKMGINVVKRKLGAHDNVKLTITQEGNKFTVKESSNFRNIDVVFELGVDFAYSAADGTELTGTWTMEGNKLVGKFKRVDNGKELIAVREISGNELIQTYTYEGVEAKRIFKKE
modifications: PEPTIDE (1)...(131) wild-type rat intestinal fatty acid binding protein
With B9, the “DR/DR LA” value in assay [1] came to 1.062. Moreover, the “DR/DR OA” value in assay [2] was determined as 0.869. The “DR/DR LNA” value in assay [3] came out at 1.082. The “DR/DR PA” value in assay [4] was determined as 0.713. Moreover, in assay [5], the “DR/DR AA” value was found to be 1.026.

B10: 38Q, 72A (protein, listed as Rattus norvegicus)
chain: AFDGTWKVDRNENYEKFMEKMGINVVKRKLGAHDNLKQTITQEGNKFTVKESSNFRNIDVVFELGVDFAYSAADGTELTGTWTMEGNKLVGKFKRVDNGKELIAVREISGNELIQTYTYEGVEAKRIFKKE
modifications: PEPTIDE (1)...(131) wild-type rat intestinal fatty acid binding protein
Turning to B10, in assay [1], the “DR/DR LA” value amounted to 1.936. Moreover, the “DR/DR OA” value in assay [2] amounted to 1.842. Also, the “DR/DR LNA” value in assay [3] came out at 1.986. In addition, the “DR/DR PA” value in assay [4] was determined as 1.551. The “DR/DR AA” value in assay [5] turned out to be 1.976.

B11: 38S, 72A (protein, listed as Rattus norvegicus)
chain: AFDGTWKVDRNENYEKFMEKMGINVVKRKLGAHDNLKSTITQEGNKFTVKESSNFRNIDVVFELGVDFAYSAADGTELTGTWTMEGNKLVGKFKRVDNGKELIAVREISGNELIQTYTYEGVEAKRIFKKE
modifications: PEPTIDE (1)...(131) wild-type rat intestinal fatty acid binding protein
As for B11, the “DR/DR LA” value in assay [1] is recorded as 1.286. In addition, in assay [2], the “DR/DR OA” value turned out to be 1.235. Moreover, in assay [3], the “DR/DR LNA” value turned out to be 1.295. Further, in assay [4], the “DR/DR PA” value was found to be 0.724. For the same molecule, the “DR/DR AA” value in assay [5] is listed as 1.175.

B12: 31Q, 72A (protein, listed as Rattus norvegicus)
chain: AFDGTWKVDRNENYEKFMEKMGINVVKRKLQAHDNLKLTITQEGNKFTVKESSNFRNIDVVFELGVDFAYSAADGTELTGTWTMEGNKLVGKFKRVDNGKELIAVREISGNELIQTYTYEGVEAKRIFKKE
modifications: PEPTIDE (1)...(131) wild-type rat intestinal fatty acid binding protein
In the case of B12, the “DR/DR LA” value in assay [1] came to 1.465. In addition, the “DR/DR OA” value in assay [2] is listed as 1.313. In addition, the “DR/DR LNA” value in assay [3] is recorded as 1.494. The “DR/DR PA” value in assay [4] is given as 1.039. Moreover, the “DR/DR AA” value in assay [5] turned out to be 1.024.

B13: 31R, 72A (protein, listed as Rattus norvegicus)
chain: AFDGTWKVDRNENYEKFMEKMGINVVKRKLRAHDNLKLTITQEGNKFTVKESSNFRNIDVVFELGVDFAYSAADGTELTGTWTMEGNKLVGKFKRVDNGKELIAVREISGNELIQTYTYEGVEAKRIFKKE
modifications: PEPTIDE (1)...(131) wild-type rat intestinal fatty acid binding protein
For B13, the “DR/DR LA” value in assay [1] is recorded as 0.405. Moreover, the “DR/DR OA” value in assay [2] is 0.227. Further, in assay [3], the “DR/DR LNA” value is 0.437. Further, in assay [4], the “DR/DR PA” value is 0.342. For the same molecule, the “DR/DR AA” value in assay [5] is 0.250.

B14: 36I, 72A (protein, listed as Rattus norvegicus)
chain: AFDGTWKVDRNENYEKFMEKMGINVVKRKLGAHDNIKLTITQEGNKFTVKESSNFRNIDVVFELGVDFAYSAADGTELTGTWTMEGNKLVGKFKRVDNGKELIAVREISGNELIQTYTYEGVEAKRIFKKE
modifications: PEPTIDE (1)...(131) wild-type rat intestinal fatty acid binding protein
On to B14, for which the “DR/DR LA” value in assay [1] is listed as 0.884. The “DR/DR OA” value in assay [2] is recorded as 0.773. Besides, the “DR/DR LNA” value in assay [3] was 1.004. Besides, in assay [4], the “DR/DR PA” value came out at 0.815. Further, the “DR/DR AA” value in assay [5] amounted to 0.812.

B15: 38M, 72A (protein, listed as Rattus norvegicus)
chain: AFDGTWKVDRNENYEKFMEKMGINVVKRKLGAHDNLKMTITQEGNKFTVKESSNFRNIDVVFELGVDFAYSAADGTELTGTWTMEGNKLVGKFKRVDNGKELIAVREISGNELIQTYTYEGVEAKRIFKKE
modifications: PEPTIDE (1)...(131) wild-type rat intestinal fatty acid binding protein
In the case of B15, in assay [1], the “DR/DR LA” value was determined as 1.805. Also, the “DR/DR OA” value in assay [2] stood at 1.630. Moreover, the “DR/DR LNA” value in assay [3] was 1.697. Besides, the “DR/DR PA” value in assay [4] stood at 1.131. Moreover, in assay [5], the “DR/DR AA” value is 1.850.
